# In patent publication US10772928B2, “Modulation and detection of a neuronal alternative splicing regulatory network for treatment and diagnosis of neurological disorders” (The Governing Council of the University of Toronto, priority 2014, dated 2020):
# B1: Snip1 (protein, UniProt Q8BIZ6 1-383, looked up)
# Smad nuclear-interacting …: MKAGKSERERSGRRRHRSGDALTTVVVKQERLSPEPVAHRRPDAPAASLSPPAAEPGHSGHRGSRARSPAKKKSKSSGRRSKSPRTKRSQSPHYPMVKVKQEREDHPRRGREDRQHREPSEQEHRRARNSERDRHRGHSRQGRSSDERPVSGQDRDRDSQNLQAQEEERDFHNARRREHRQQNESAGSEAQEVIPRPAGNRSKEVPVKEKPSFELSGALLEDTNTFRGVVIKYSEPPEARIPKKRWRLYPFKNDEVLPVMYIHRQSAYLLGRHRRIADIPIDHPSCSKQHAVFQYRLVEYTRADGTVGRRVKPYIIDLGSGNGTFLNNKRIEPQRYYELKEKDVLKFGFSSREYVLLHESSDTSELDRKEDEDDEEEEMVSDS
# B2: Ap2b1 (protein, UniProt Q9DBG3 2-937, looked up)
# AP-2 complex subunit beta: TDSKYFTTNKKGEIFELKAELNNEKKEKRKEAVKKVIAAMTVGKDVSSLFPDVVNCMQTDNLELKKLVYLYLMNYAKSQPDMAIMAVNSFVKDCEDPNPLIRALAVRTMGCIRVDKITEYLCEPLRKCLKDEDPYVRKTAAVCVAKLHDINAQMVEDQGFLDSLRDLIADSNPMVVANAVAALSEISESHPNSNLLDLNPQNINKLLTALNECTEWGQIFILDCLSNYNPKDDREAQSICERVTPRLSHANSAVVLSAVKVLMKFLELLPKDSDYYNMLLKKLAPPLVTLLSGEPEVQYVALRNINLIVQKRPEILKQEIKVFFVKYNDPIYVKLEKLDIMIRLASQANIAQVLAELKEYATEVDVDFVRKAVRAIGRCAIKVEQSAERCVSTLLDLIQTKVNYVVQEAIVVIRDIFRKYPNKYESIIATLCENLDSLDEPDARAAMIWIVGEYAERIDNADELLESFLEGFHDESTQVQLTLLTAIVKLFLKKPSETQELVQQVLSLATQDSDNPDLRDRGYIYWRLLSTDPVTAKEVVLSEKPLISEETDLIEPTLLDELICHIGSLASVYHKPPNAFVEGSHGIHRKHLPIHHGSTDAGDSPVGTTTTTNLEQPQVIPSQGDLLGDLLNLDLGPPVNVPQVSSMQMGAVDLLGGGLDSLVGQSFIPSSVPATFAPSPTPAVVSSGLNDLFELSTGIGMAPGGYVAPKAVWLPAVKAKGLEISGTFTHRQGHIYMEMNFTNKALQHMTDFAIQFNKNSFGVIPSTPLAIHTPLMPNQSIDVSLPLNTLGPVMKMEPLNNLQVAVKNNIDVFYFSCLIPLNVLFVEDGKMERQVFLATWKDIPNENELQFQIKECHLNADTVSSKLQNNNVYTIAKRNVEGQDMLYQSLKLTNGIWILAELRIQPGNPNYTLSLKCRAPEVSQYIYQVYDSILKN
# B3: Sap18 (protein, UniProt O55128 2-153, looked up)
# Histone deacetylase complex …: AVESRVTQEEIKKEPEKPIDREKTCPLLLRVFTTNNGRHHRMDEFSRGNVPSSELQIYTWMDATLKELTSLVKEVYPEARKKGTHFNFAIVFMDLKRPGYRVKEIGSTMSGRKGTDDSMTLQSQKFQIGDYLDIAITPPNRAPPSSGRMRPY
# B4: Ftsjd2 (protein, UniProt Q9DBC3 1-837, looked up)
# Cap-specific mRNA …: MKRRTDPECTAPLKKQKRIGELARHLSSTSDDEPLSSVNHAAKASATSLSGSDSETEGKQPCSDDFKDAFKADSLVEGTSSRYSMYNSVSQRLMAKMGFREGEGLGKYSQGRKDIVETSNQKGRRGLGLTLQGFDQELNVDWRDEPEPNACEQVSWFPECTTEIPDSREMSDWMVVGKRKMVIEDETEFCGEELLHSMLKCKSVFDILDGEEMRRARTRANPYEMIRGVFFLNRAAMKMANMDFVFDRMFTNPLDSSGKPLLKESDIDLLYFADVCAGPGGFSEYVLWRKKWHAKGFGMTLKGPNDFKLEDFYSASSELFEPYYGEGGVDGDGDITRPENINAFRNFVLDNTDRKGVHFVMADGGFSVEGQENLQEILSKQLLLCQFLMALSVVRTGGHFVCKTFDLFTPFSVGLIYLLYCCFERVCLFKPITSRPANSERYVVCKGLKVGIDDVREYLFSVNIKLNQLRNTESDVNLVVPLMVIKGDHEFNDYMIRSNESYCSLQIKALAKIHAFVQDTTLSEPRQAEIRKECLQLWKIPDQARVAPSSSDPKFKFFELIKDTDINIFSYKPTLLTAKTLEKIRPVLEYRCMVSGSEQKFLLGLGKSQIYTWDGRQSDRWVKLDLKTELPRDTLLCVEIVHELKGEGKAQRKISAIHILDVLVLNGSDVREQHFNQRIQLAEKFVKAVSKPSRPDMNPIRVKEVYRLEEMEKIFVRLEMKLIKGSGGTPKLSYTGRDDRHFVPTGVYIVRTVNEPWTMGFSKSNNRKFFYNKKTQKSVYALPTESIAPFHTCYYSRLFWEWGDGFHMRDSQKPQDPDKLSKEDVLSFIQSHNPLGP
# B5: Sf3b3 (protein, UniProt Q921M3 1-1217, looked up)
# Splicing factor 3B subunit 3: MFLYNLTLQRATGISFAIHGNFSGTKQQEIVVSRGKILELLRPDPNTGKVHTLLTVEVFGVIRSLMAFRLTGGTKDYIVVGSDSGRIVILEYQPSKNMFEKIHQETFGKSGCRRIVPGQFLAVDPKGRAVMISAIEKQKLVYILNRDAAARLTISSPLEAHKANTLVYHVVGVDVGFENPMFACLEMDYEEADNDPTGEAAANTQQTLTFYELDLGLNHVVRKYSEPLEEHGNFLITVPGGSDGPSGVLICSENYITYKNFGDQPDIRCPIPRRRNDLDDPERGMIFVCSATHKTKSMFFFLAQTEQGDIFKITLETDEDMVTEIRLKYFDTVPVAAAMCVLKTGFLFVASEFGNHYLYQIAHLGDDDEEPEFSSAMPLEEGDTFFFQPRPLKNLVLVDELDSLSPILFCQIADLANEDTPQLYVACGRGPRSSLRVLRHGLEVSEMAVSELPGNPNAVWTVRRHIEDEFDAYIIVSFVNATLVLSIGETVEEVTDSGFLGTTPTLSCSLLGDDALVQVYPDGIRHIRADKRVNEWKTPGKKTIVKCAVNQRQVVIALTGGELVYFEMDPSGQLNEYTERKEMSADVVCMSLANVPPGEQRSRFLAVGLVDNTVRIISLDPSDCLQPLSMQALPAQPESLCIVEMGGTEKQDELGERGSIGFLYLNIGLQNGVLLRTVLDPVTGDLSDTRTRYLGSRPVKLFRVRMQGQEAVLAMSSRSWLSYSYQSRFHLTPLSYETLEFASGFASEQCPEGIVAISTNTLRILALEKLGAVFNQVAFPLQYTPRKFVIHPESNNLIIIETDHNAYTEATKAQRKQQMAEEMVEAAGEDERELAAEMAAAFLNENLPESIFGAPKAGNGQWASVIRVMNPIQGNTLDLVQLEQNEAAFSVAVCRFSNTGEDWYVLVGVAKDLILSPRSVAGGFVYTYKLVNNGEKLEFLHKTPVEEVPAAIAPFQGRVLIGVGKLLRVYDLGKKKLLRKCENKHIANYISGIQTIGHRVIVSDVQESFIWVRYKRNENQLIIFADDTYPRWVTTASLLDYDTVAGADKFGNICVVRLPPNTNDEVDEDPTGNKALWDRGLLNGASQKAEVIMNYHVGETVLSLQKTTLIPGGSESLVYTTLSGGIGILVPFTSHEDHDFFQHVEMHLRSEHPPLCGRDHLSFRSYYFPVKNVIDGDLCEQFNSMEPNKQKNVSEELDRTPPEVSKKLEDIRTRYAF
# Target: T1, nSR100 (Mus musculus, UniProt Q8BKA3)
# T1 construct: host or cells: mouse N2A cells
# T1 sequence (Q8BKA3 1-608): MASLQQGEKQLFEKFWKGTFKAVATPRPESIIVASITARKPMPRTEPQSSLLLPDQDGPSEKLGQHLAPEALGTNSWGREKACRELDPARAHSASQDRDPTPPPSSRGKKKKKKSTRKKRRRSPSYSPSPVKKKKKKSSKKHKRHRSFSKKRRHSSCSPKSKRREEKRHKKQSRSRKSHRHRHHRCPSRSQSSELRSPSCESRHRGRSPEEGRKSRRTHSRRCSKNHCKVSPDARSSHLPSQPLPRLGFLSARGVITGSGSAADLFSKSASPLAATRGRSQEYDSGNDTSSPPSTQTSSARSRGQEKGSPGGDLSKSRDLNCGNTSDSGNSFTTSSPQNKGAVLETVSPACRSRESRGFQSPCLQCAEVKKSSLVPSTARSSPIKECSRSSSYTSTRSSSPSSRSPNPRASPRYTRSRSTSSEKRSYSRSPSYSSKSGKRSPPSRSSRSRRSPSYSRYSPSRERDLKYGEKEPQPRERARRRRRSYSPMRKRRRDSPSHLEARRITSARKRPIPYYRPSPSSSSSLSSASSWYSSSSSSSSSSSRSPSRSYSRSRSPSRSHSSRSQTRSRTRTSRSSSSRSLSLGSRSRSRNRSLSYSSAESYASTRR
# Test: AP-MS nSR100 interaction partners from mouse N2A cells (Table 5)
# Type: binding
# Conditions: bait Srrm4
# From the text: By applying affinity purification coupled to mass-spectrometry (AP-MS), several interaction nSR100 partner proteins were detected that provide insight into mechanisms of post-translational regulation of nSR100 levels.
AvgP (average of the SAINT scores),MaxP (maximal SAINT score),Molecule
1,1,B1
1,1,B2
1,1,B3
1,1,B4
1,1,B5

# Same assay, conditions: bait Srrm4, 0.1 added to prevent division by 0
row,FoldChange between the prey Avg spectra of the bait and control purifications,Molecule
1,70,B1
2,5.13,B2
3,225,B3
4,40,B4
5,3.48,B5

# Same assay, conditions: bait Srrm4, 2 replicates
row,AvgSpec (average number of spectra per replicate),Molecule
1,7,B1
2,79.5,B2
3,22.5,B3
4,4,B4
5,97.5,B5

# Same assay, conditions: bait Srrm4, biological replicate 1 (first number of the cell), AP-MS
row,Spectra (number of spectra for the prey in the purification of the bait),Molecule
1,5,B1
2,83,B2
3,17,B3
4,4|4,B4
5,90,B5

# Same assay, conditions: bait Srrm4, biological replicate 2 (second number of the cell), AP-MS
row,Spectra (number of spectra for the prey in the purification of the bait),Molecule
1,9,B1
2,76,B2
3,28,B3
4,4|4,B4
5,105,B5

# Same assay, conditions: bait Srrm4, sum of spectra over 2 replicates
row,SpecSum,Molecule
1,14,B1
2,159,B2
3,45,B3
4,8,B4
5,195,B5
